Measured values taken from article PMC5117957 (Journal of immunology (Baltimore, Md. : 1950), 2016).

Target: gp120 (derived from isolate YU2) (HIV-1 isolate YU2, UniProt P35961)
Experiment: ELISA

B1: CD4bs MAb F105 (antibody, V domains shown)
VH: QVQLQESGPGLVKPSETLSLTCTVSGGSISSHYWSWIRQSPGKGLQWIGYIYYSGSTNYSPSLKSRVTISVETAKNQFSLKLTSMTAADTAVYYCARGPVPAVFYGDYRLDPWGQGTLVTVSS
VL: EIVLTQSPGTLSLSAGERATLSCRASQSVSSRYLAWYQQKPGQAPRLLIYGASSRATGIPDRFSGSGSGTDFTLTISRVEPEDFAVYYCQQYDNSVCTFGQGTKLEIK
binding result: binds
